One substance from US20080227123A1 can be followed below.

The target of this experiment is B cell antigen receptor (BCR; surface IgM) on DT40-ASF cells (chicken). Nature of the experiment: cell-based or functional assay.

With “antibody M4 (mouse-derived anti-chicken IgM monoclonal antibody)”, the recovery of cell proliferation of doxycycline-treated DT40-ASF cells was more than 1 µg/mL.
